{"source": "patent US11360100B2", "about": "“Methods and compositions useful in detecting proteins” (OREGON HEALTH & SCIENCE UNIVERSITY, priority 2016, dated 2022)", "assay": "Membrane permeance of probe peptides in living cells", "format": "cell-based", "procedure": "The disclosed tag sets preferentially label cell surfaces and are membrane impermeant in living cells, which is of particular use in labeling cell-surface receptors (i.e., TfR1 and EGFR) and more particularly of use in monitoring trafficking and endocytosis.\nThe disclosed methods were tested in transfected human osteosarcoma cells (U-2 OS). A pDisplay vector was used to target CoilZ-EGFP and untagged EGFP to the cell surface. This construct includes a C-terminal fusion to the transmembrane domain of the platelet derived growth factor receptor. As expected, both CoilZ-EGFP and untagged EGFP localized to the cell surface, and green fluorescence was observed within 24 h of transfection. Then the cells were blocked with 6% BSA and 10% FBS for 30 minutes at 37° C. and then contacted with an AF647-conjugated CoilY probe (CoilY-AF647), 30 min at 4° C. Cells were fixed before imaging by confocal fluorescence microscopy. The probe peptides are membrane impermeant; only cell-surface EGFP was accessible to CoilY-AF647 for labeling. Colocalization of green fluorescent CoilZ-EGFP with CoilY-AF647 was observed.\nVIP probe peptides are live cell impermeant. This makes them ideal for imaging and tracking receptor internalization. […]\nVIPER labeling was compared to that of standard fluorescence labeling techniques, namely a fluorescent protein fusion to mCherry and antibody labeling."}
{"substance": "CoilR: coiled-coil peptide, SEQ ID NO: 1, designed from RR12EE345L (LEIRAAFLRQRNTALRTEVAELEQEVQRLENEVSQYETRYGPL)", "values": [{"measurement": "cell membrane permeance", "value": "cell-membrane impermeance"}]}
